B1: YLR330W_2 (protein, UniProt Q12114 1-671, looked up)
Chitin biosynthesis protein …: MSSVDVLLTVGKLDASLALLTTQDHHVIEFPTVLLPENVKAGSIIKMQVSQNLEEEKKQRNHFKSIQAKILEKYGTHKPESPVLKIVNVTQTSCVLAWDPLKLGSAKLKSLILYRKGIRSMVIPNPFKVTTTKISGLSVDTPYEFQLKLITTSGTLWSEKVILRTHKMTDMSGITVCLGPLDPLKEISDLQISQCLSHIGARPLQRHVAIDTTHFVCNDLDNEESNEELIRAKHNNIPIVRPEWVRACEVEKRIVGVRGFYLDADQSILKNYTFPPVNEEELSYSKENEPVAEVADENKMPEDTTDVEQVASPNDNESNPSEAKEQGEKSGHETAPVSPVEDPLHASTALENETTIETVNPSVRSLKSEPVGTPNIEENKADSSAEAVVEEPNEAVAESSPNEEATGQKSEDTDTHSNEQADNGFVQTEEVAENNITTESAGENNEPADDAAMEFGRPEAEIETPEVNESIEDANEPAEDSNEPVEDSNKPVKDSNKPVEDSNKPVEDSNKPVEDSNKPVEDANEPVEDTSEPVEDAGEPVQETNEFTTDIASPRHQEEDIELEAEPKDATESVAVEPSNEDVKPEEKGSEAEDDINNVSKEAASGESTTHQKTEASASLESSAVTEEQETTEAEVNTDDVLSTKEAKKNTGNSNSNKKKNKKNKKKGKKK
B2: YLR196W_2 (protein, UniProt P21304 1-576, looked up)
Periodic tryptophan protein 1: MISATNWVPRGFSSEFPEKYVLDDEEVERINQLAQLNLDDAKATLEEAEGESGVEDDAATGSSNKLKDQLDIDDDLKEYNLEEYDDEEIADNEGGKDVSMFPGLSNDSDVKFHEGEKGEDPYISLPNQEDSQEEKQELQVYPSDNLVLAARTEDDVSYLDIYVYDDGAGFHSSDIPVEEGDEADPDVARGLVRDPALYVHHDLMLPAFPLCVEWLDYKVGSNSEEAANYAAIGTFDPQIEIWNLDCVDKAFPDMILGEPLDNSMVSLKSKKKKKKSKTGHITTHHTDAVLSMAHNKYFRSVLASTSADHTVKLWDLNSGNAARSLASIHSNKNVSSSEWHMLNGSILLTGGYDSRVALTDVRISDESQMSKYWSAMAGEEIETVTFASENIILCGTDSGNVYSFDIRNNENRKPVWTLKAHDAGISTLCSNKFIPGMMSTGAMGEKTVKLWKFPLDDATNTKGPSMVLSRDFDVGNVLTSSFAPDIEVAGTMVIGGVNKVLKLWDVFTNRSVRKSFKSELENVQARAKEEAQKIGKSSRIARKYTSNDNPDTVITIDDQGEDEEEREGGDEHDDMA
B3: YMR216C_2 (protein, UniProt Q03656 1-742, looked up)
Serine/threonine-protein …: MGSSINYPGFVTKSAHLADTSTDASISCEEATSSQEAKKNFFQRDYNMMKKAPAPTKSKLSLALQTSKSSSSANGTVQEDTSSKTEDFSTKSIKKKPDSGVESHVSIQSDSGPQSDSDLDSDSSISSCDERNEESLKDYRPGGYHPAFKGEPYKDARYILVRKLGWGHFSTVWLAKDMVNNTHVAMKIVRGDKVYTEAAEDEIKLLQRVNDADNTKEDSMGANHILKLLDHFNHKGPNGVHVVMVFEVLGENLLALIKKYEHRGIPLIYVKQISKQLLLGLDYMHRRCGIIHTDIKPENVLMEIGDVEGIVQMVEALDKQKREAKRLQRHVSRSSDITANDSSDEKWAECQTSMPCGSSSNSKSRSIEKDLSKRCFRRPRRHTIITGSQPLPSPISSSNFFEMRAHFCGSSHNSFSSVSGNRNIPSSINNNSINNGIGIKNSNNSFLNSVPHSVTRMFINEDSNDNNNNDNSKNKNNNNNNSNNNNNEDIMNTPLHEEQLADSLSTFDISNISQSSDTNGPYISNTMDSNSNVSTDINSPENLIQIKIADLGNACWYDEHYTNSIQTREYRSPEVLLGAPWGCGADIWSTACLIFELITGDFLFEPDEGHSYTKDDDHIAQIIELLGELPSYLLRNGKYTRTFFNSRGLLRNISKLKFWPLEDVLTEKYKFSKDEAKEISDFLSPMLQLDPRKRADAGGLVNHPWLKDTLGMEEIRVPDRELYGSGSDIPGWFEEVRDHKRH

System: PPIs identified as affected by the SH3 domain deletions
Assay: Liquid DHFR-PCA low-throughput validation of PPIs affected by SH3 deletion (Fig. S1D-E)
Assay type: cell-based, Saccharomyces cerevisiae
Details: bait LSB3; label = prey; liquid DHFR-PCA; prey _1 = lost, _2 = gained in screen
Summary of the method: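 Yeast diploids from DHFR-PCA mating grown 48 h in synthetic complete MSG medium pH 6.0 with NAT and HPH, normalized to 1 OD and diluted to 0.1 OD in liquid PCA selection medium. Growth followed by OD every 15 min for 72 h at 30 °C.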

Molecule | Ratio (Deletedscore / WTscore)
B1 | 1.34
B2 | 1.184
B3 | 1.244

— publication PMC7954794, “Protein context shapes the specificity of SH3 domain-mediated interactions in vivo” (Nature Communications, 2021)
